According to patent US20220119490A1 (Genentech, published 2022):

T1: PTPRD G203E K204E variant extracellular domain (human, UniProt P23468 21-1265)
T1 construct: extracellular domain; also called G203E/K204E double mutant; IG2 mutant
T1 sequence (looked up): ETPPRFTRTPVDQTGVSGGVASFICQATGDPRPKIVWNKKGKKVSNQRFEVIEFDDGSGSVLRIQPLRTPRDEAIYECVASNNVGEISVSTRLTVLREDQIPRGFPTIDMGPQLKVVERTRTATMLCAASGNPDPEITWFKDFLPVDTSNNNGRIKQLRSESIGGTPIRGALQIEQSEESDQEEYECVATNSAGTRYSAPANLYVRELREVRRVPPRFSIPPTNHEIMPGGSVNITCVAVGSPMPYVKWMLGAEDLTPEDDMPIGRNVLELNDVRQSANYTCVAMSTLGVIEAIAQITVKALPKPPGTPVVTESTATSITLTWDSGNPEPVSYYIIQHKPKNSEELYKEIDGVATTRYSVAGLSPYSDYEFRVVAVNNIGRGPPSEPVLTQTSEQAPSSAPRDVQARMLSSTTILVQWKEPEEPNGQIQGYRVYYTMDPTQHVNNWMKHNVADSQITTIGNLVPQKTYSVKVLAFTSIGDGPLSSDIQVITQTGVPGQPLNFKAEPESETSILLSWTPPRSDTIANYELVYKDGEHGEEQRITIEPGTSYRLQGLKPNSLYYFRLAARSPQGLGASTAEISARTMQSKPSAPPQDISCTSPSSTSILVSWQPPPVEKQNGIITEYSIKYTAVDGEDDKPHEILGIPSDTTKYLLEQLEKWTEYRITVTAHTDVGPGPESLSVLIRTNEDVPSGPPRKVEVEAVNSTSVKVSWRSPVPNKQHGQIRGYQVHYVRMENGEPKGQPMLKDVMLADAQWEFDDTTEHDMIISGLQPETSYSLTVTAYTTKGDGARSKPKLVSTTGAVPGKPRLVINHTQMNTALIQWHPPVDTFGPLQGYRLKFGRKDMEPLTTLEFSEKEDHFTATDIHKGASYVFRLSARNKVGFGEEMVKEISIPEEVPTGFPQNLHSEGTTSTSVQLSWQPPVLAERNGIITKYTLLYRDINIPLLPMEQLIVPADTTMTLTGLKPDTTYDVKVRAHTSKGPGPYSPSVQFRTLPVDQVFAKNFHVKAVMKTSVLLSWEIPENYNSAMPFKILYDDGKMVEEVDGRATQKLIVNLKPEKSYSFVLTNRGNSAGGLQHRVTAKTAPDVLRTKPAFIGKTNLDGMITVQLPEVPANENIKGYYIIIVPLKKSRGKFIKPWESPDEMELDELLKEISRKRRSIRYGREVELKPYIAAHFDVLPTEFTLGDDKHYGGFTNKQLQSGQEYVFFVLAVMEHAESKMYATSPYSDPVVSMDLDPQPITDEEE

T2: CHL1 extracellular domain (human, UniProt O00533 25-1082)
T2 construct: extracellular domain; Soluble query (streptavidin tetramer) in cell assays; recombinant protein (R&D) in SPR; also called neural cell adhesion molecule L1-like protein; close homolog of L1
T2 sequence (looked up): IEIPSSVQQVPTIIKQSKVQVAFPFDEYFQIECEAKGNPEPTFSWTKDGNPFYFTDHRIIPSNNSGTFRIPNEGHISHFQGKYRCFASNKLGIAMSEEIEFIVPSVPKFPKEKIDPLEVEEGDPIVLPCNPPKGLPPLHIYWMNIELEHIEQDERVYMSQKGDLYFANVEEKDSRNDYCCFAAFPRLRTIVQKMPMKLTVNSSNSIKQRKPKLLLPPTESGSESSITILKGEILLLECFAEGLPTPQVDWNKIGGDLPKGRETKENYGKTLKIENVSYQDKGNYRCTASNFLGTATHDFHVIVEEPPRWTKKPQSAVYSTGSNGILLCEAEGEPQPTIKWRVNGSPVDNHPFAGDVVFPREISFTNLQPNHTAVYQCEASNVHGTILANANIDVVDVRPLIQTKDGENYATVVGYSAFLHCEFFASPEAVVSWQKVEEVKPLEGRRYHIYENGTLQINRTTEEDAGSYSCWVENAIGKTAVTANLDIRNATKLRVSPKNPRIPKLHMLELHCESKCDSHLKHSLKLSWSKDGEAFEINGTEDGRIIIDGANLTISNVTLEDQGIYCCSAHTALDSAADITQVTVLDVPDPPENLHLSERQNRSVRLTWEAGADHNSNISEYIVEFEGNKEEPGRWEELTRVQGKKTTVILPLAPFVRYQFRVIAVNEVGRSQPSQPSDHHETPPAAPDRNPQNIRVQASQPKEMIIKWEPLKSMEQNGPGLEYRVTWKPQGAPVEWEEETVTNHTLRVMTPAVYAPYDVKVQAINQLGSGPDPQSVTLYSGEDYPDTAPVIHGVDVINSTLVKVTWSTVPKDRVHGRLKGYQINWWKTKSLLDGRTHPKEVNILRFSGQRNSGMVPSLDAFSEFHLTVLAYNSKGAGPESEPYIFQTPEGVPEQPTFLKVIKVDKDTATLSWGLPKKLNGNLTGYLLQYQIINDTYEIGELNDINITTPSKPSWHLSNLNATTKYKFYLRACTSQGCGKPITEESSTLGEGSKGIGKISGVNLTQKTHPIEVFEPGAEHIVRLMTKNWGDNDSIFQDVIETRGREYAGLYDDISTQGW


Columns and labels:
[1] = target: T1, PTPRD G203E K204E variant extracellular …; test: extracellular interaction screen: pentameric PTPRD variant ECD on ECD-Fc prey (FIG. 5L)
[2] = target: T3, PTPRG expressed on cells (human, UniProt P23470 20-1445); test: cell surface interaction assay: query ECD tetramerised with fluorescent streptavidin on transfected cells, immunofluorescence
T3 construct: whole, on cells
T3 sequence (P23470 20-1445): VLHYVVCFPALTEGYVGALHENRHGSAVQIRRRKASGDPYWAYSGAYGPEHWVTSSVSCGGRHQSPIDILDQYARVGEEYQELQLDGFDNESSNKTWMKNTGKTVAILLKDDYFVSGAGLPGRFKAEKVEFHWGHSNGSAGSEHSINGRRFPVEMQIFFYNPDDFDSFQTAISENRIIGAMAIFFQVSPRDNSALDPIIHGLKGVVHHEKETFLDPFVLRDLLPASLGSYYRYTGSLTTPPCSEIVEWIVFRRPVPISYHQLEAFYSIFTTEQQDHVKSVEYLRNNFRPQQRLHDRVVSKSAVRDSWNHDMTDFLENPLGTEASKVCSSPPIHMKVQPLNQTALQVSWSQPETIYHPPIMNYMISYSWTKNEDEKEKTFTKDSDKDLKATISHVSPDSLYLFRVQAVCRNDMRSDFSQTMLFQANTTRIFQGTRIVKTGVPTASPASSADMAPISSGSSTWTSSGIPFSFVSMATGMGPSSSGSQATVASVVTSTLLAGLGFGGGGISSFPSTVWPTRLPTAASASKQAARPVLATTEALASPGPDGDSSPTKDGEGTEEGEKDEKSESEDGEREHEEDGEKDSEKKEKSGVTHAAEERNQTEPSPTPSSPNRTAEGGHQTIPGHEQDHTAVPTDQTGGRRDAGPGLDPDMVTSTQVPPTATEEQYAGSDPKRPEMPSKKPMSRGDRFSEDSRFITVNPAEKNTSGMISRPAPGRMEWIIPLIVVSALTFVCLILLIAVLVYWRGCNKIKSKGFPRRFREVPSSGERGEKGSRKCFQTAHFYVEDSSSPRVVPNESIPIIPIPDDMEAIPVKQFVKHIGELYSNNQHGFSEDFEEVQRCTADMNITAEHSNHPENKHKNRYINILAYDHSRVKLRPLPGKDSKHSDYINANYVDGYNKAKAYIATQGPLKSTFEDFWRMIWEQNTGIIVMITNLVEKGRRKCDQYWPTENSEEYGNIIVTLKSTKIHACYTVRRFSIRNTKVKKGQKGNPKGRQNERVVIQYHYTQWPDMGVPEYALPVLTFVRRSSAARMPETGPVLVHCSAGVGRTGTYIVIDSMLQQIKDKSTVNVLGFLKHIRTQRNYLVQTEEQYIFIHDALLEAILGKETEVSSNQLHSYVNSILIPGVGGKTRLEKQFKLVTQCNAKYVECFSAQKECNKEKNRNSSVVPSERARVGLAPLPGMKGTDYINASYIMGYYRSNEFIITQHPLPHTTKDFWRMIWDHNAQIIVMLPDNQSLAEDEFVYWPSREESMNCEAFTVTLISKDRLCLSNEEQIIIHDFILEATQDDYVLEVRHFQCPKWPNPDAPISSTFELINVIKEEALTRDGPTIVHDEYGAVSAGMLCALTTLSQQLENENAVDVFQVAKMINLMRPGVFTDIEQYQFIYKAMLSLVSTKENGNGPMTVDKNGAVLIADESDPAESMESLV
Excerpt: (§1) FIG. 3H is a schematic showing the design of the cell surface interaction assay.
(§2) Experiments shown are representative of two independent assays. […] Scale bar=50 μm.

[3] = target: T4, PTPRM expressed on cells (human, UniProt P28827 21-1452); test: as above
T4 construct: whole, on cells
T4 sequence (P28827 21-1452): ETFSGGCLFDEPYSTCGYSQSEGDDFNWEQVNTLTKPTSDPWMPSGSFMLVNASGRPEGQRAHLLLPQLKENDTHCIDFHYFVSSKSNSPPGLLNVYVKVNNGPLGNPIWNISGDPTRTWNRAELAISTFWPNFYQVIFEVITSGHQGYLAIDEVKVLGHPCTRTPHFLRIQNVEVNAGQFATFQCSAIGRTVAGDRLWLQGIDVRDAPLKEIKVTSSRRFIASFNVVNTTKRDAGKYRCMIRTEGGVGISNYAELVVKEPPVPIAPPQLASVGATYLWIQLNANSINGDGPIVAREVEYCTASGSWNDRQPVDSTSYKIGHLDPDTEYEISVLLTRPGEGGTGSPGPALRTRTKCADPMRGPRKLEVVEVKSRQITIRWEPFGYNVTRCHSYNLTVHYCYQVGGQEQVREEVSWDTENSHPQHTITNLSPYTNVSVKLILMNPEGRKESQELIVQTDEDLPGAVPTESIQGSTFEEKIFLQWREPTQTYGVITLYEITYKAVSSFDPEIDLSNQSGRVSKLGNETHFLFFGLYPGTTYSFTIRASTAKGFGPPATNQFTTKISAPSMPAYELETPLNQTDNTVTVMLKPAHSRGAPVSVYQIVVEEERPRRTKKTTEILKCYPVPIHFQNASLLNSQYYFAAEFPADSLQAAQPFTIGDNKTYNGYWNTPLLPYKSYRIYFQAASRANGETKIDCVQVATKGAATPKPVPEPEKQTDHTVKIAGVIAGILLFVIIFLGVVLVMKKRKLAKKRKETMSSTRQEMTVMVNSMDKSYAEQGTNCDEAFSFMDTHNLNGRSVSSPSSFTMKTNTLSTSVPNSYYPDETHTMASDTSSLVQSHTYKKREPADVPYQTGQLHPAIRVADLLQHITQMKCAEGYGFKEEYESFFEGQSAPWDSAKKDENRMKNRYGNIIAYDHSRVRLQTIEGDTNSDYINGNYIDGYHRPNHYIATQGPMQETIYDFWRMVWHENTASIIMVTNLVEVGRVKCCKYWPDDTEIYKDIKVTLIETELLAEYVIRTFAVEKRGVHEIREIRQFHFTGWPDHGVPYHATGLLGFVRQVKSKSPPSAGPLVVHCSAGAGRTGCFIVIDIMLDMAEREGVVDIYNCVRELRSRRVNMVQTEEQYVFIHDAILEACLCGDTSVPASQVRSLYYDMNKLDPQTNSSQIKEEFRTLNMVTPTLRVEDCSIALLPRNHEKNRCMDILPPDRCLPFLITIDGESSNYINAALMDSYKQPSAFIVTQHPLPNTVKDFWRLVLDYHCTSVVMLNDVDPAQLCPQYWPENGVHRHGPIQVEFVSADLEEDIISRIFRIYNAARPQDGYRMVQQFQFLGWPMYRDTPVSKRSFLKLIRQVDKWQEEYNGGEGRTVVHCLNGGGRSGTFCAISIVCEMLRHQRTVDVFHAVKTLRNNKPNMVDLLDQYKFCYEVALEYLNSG
Excerpt: as §1, §2

[4] = target: T2, CHL1 extracellular domain; test: SPR, CHL1 immobilized, CNTN1 ECD-Fc injected at 250 nM

binding result [1] | binding result [2] | binding result [3] | binding result [4] | Binder
no binding | no binding | no binding | – | LRFN5 extracellular domain (receptor, human, UniProt Q96NI6 18-529, looked up, extracellular domain; Streptavidin tetramer in cell assay; ECD-Fc prey in the variant screen; also called LFRN5) QICPKRCVCQILSPNLATLCAKKGLLFVPPNIDRRTVELRLADNFVTNIKRKDFANMTSLVDLTLSRNTISFITPHAFADLRNLRALHLNSNRLTKITNDMFSGLSNLHHLILNNNQLTLISSTAFDDVFALEELDLSYNNLETIPWDAVEKMVSLHTLSLDHNMIDNIPKGTFSHLHKMTRLDVTSNKLQKLPPDPLFQRAQVLATSGIISPSTFALSFGGNPLHCNCELLWLRRLSREDDLETCASPPLLTGRYFWSIPEEEFLCEPPLITRHTHEMRVLEGQRATLRCKARGDPEPAIHWISPEGKLISNATRSLVYDNGTLDILITTVKDTGAFTCIASNPAGEATQIVDLHIIKLPHLLNSTNHIHEPDPGSSDISTSTKSGSNTSSSNGDTKLSQDKIVVAEATSSTALLKFNFQRNIPGIRMFQIQYNGTYDDTLVYRMIPPTSKTFLVNNLAAGTMYDLCVLAIYDDGITSLTATRVVGCIQFTTEQDYVRCHFMQSQFLGGTM
no binding | – | – | – | LRRC4B extracellular domain (receptor, human, UniProt Q9NT99 36-576, looked up, extracellular domain; ECD-Fc prey; also called NGL-3; netrin-G ligand-3) AGGGGVAVTSAAGGGSPPATSCPVACSCSNQASRVICTRRDLAEVPASIPVNTRYLNLQENGIQVIRTDTFKHLRHLEILQLSKNLVRKIEVGAFNGLPSLNTLELFDNRLTTVPTQAFEYLSKLRELWLRNNPIESIPSYAFNRVPSLRRLDLGELKRLEYISEAAFEGLVNLRYLNLGMCNLKDIPNLTALVRLEELELSGNRLDLIRPGSFQGLTSLRKLWLMHAQVATIERNAFDDLKSLEELNLSHNNLMSLPHDLFTPLHRLERVHLNHNPWHCNCDVLWLSWWLKETVPSNTTCCARCHAPAGLKGRYIGELDQSHFTCYAPVIVEPPTDLNVTEGMAAELKCRTGTSMTSVNWLTPNGTLMTHGSYRVRISVLHDGTLNFTNVTVQDTGQYTCMVTNSAGNTTASATLNVSAVDPVAAGGTGSGGGGPGGSGGVGGGSGGYTYFTTVTVETLETQPGEEALQPRGTEKEPPGPTTDGVWGGGRPGDAAGPASSSTTAPAPRSSRPTEKAFTVPITDVTENALKDLDDVMKTTK
– | – | – | binds | CNTN1 extracellular domain (receptor, human, UniProt Q12860 21-993, looked up, extracellular domain; Streptavidin tetramer in cell assays; ECD-Fc in SPR; also called contactin 1) EFTWYRRYGHGVSEEDKGFGPIFEEQPINTIYPEESLEGKVSLNCRARASPFPVYKWRMNNGDVDLTSDRYSMVGGNLVINNPDKQKDAGIYYCLASNNYGMVRSTEATLSFGYLDPFPPEERPEVRVKEGKGMVLLCDPPYHFPDDLSYRWLLNEFPVFITMDKRRFVSQTNGNLYIANVEASDKGNYSCFVSSPSITKSVFSKFIPLIPIPERTTKPYPADIVVQFKDVYALMGQNVTLECFALGNPVPDIRWRKVLEPMPSTAEISTSGAVLKIFNIQLEDEGIYECEAENIRGKDKHQARIYVQAFPEWVEHINDTEVDIGSDLYWPCVATGKPIPTIRWLKNGYAYHKGELRLYDVTFENAGMYQCIAENTYGAIYANAELKILALAPTFEMNPMKKKILAAKGGRVIIECKPKAAPKPKFSWSKGTEWLVNSSRILIWEDGSLEINNITRNDGGIYTCFAENNRGKANSTGTLVITDPTRIILAPINADITVGENATMQCAASFDPALDLTFVWSFNGYVIDFNKENIHYQRNFMLDSNGELLIRNAQLKHAGRYTCTAQTIVDNSSASADLVVRGPPGPPGGLRIEDIRATSVALTWSRGSDNHSPISKYTIQTKTILSDDWKDAKTDPPIIEGNMEAARAVDLIPWMEYEFRVVATNTLGRGEPSIPSNRIKTDGAAPNVAPSDVGGGGGRNRELTITWAPLSREYHYGNNFGYIVAFKPFDGEEWKKVTVTNPDTGRYVHKDETMSPSTAFQVKVKAFNNKGDGPYSLVAVINSAQDAPSEAPTEVGVKVLSSSEISVHWEHVLEKIVESYQIRYWAAHDKEEAANRVQVTSQEYSARLENLLPDTQYFIEVGACNSAGCGPPSDMIEAFTKKAPPSQPPRIISSVRSGSRYIITWDHVVALSNESTVTGYKVLYRPDGQHDGKLYSTHKHSIEVPIPRDGEYVVEVRAHSDGGDGVVSQVKIS
